Reference: article doi:10.1101/2024.04.19.590298 (bioRxiv, 2024)

How the values were obtained:
[1] = target: T1, Nucleocapsid a. a. 401–410 (Frag 5) (SARS-CoV-2 (YP_009724397 reference)); experiment: ELISA; peptide competition ELISA: plate coated with 0.1 ug/ml recombinant NP overnight at 4°C; 40 μL mBG17 pre-incubated 1 h at room temperature with 40 μg (approximately 30 nMol) of a single peptide, then applied to the plate 1 h at room temperature; goat anti-mouse HRP, A450; triplicate; settings: both partners purified
T1 construct: SARS-CoV-2 nucleocapsid protein, residues 401-410; also called Fragment 5; WT (a.a. 401–410) peptide; source: synthetic peptide (Thermo Scientific)
T1 chain: DDFSKQLQQS

[2] = target: T2, recombinant SARS-CoV-2 nucleocapsid protein (SARS-CoV-2 (reference sequence …, UniProt P0DTC9)); experiment: as above; settings: both partners purified
T2 construct: SARS-CoV-2 nucleocapsid protein; also called NP; SARS-CoV-2 NP

B1: anti-SARS-CoV-2 nucleocapsid protein (NP) monoclonal mouse antibody mBG17 (recombinant) (antibody, V domains shown)
VH: EVKLEESGGGLVQPGGSMKFSCVASGFTFSDYWMNWVRQSPDKGLEWVAEIRLKSNNYATHYAASVKGRFTISRDDSKSSVYLQMNNLRAEDSGIYYCTRSAMDYWGQGTSVTVSS
VL: DIVMSQSPSSLAVSVGEKITMSCKSSQSLLYTSDQKNYLAWFQQKPGQSPKLLIFWASTRDSGVPDRFTGSGSGTDFTLTISSVKAEDLAVYYCQQFYNYPRTFGGGTKLEIK
notes: Whole antibody, detected with goat anti-mouse HRP; The scFv forms were used in calculations only; also called recombinant mBG17
Does B1 bind [1]?
Result: binds

Does B1 bind [2]?
Result: binds
